The sequences below were run on Escherichia coli TOP10 (assay: shrunken log2 fold change of peptide-encoding DNA abundance (4.5 h post-induction vs induction); higher = less antimicrobial activity (less host growth inhibition)). Details: time post-induction: 4.5 h; library: site-saturation at positions 5, 18, 19, 20.
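Further: peptides expressed intracellularly from a pBAD plasmid library in pooled LB shake-flask culture, induced with 0.3% L-arabinose, DNA abundance read by NGS, three biological replicates, DESeq2 with apeglm shrinkage.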

Sequence	shrunken log2 fold change
RRIRDRPPRLPRPRPRPMYFPRP	-0.358
RRIRYRPPRLPRPRPRPGAQPRP	-0.0279
RRIRERPPRLPRPRPRPDVEPRP	0.084
RRIRFRPPRLPRPRPRPARCPRP	0.44
RRIRARPPRLPRPRPRPIFFPRP	0.388
RRIRFRPPRLPRPRPRPHWFPRP	-0.0545
RRIRARPPRLPRPRPRPRLIPRP	0.235
RRIRDRPPRLPRPRPRPYLEPRP	-0.0399
RRIRNRPPRLPRPRPRPPHFPRP	0.0188
RRIRCRPPRLPRPRPRPVNDPRP	-0.186
RRIRARPPRLPRPRPRPDHVPRP	0.0166
RRIRCRPPRLPRPRPRPNGRPRP	0.0604
RRIRSRPPRLPRPRPRPLHLPRP	-0.0832
RRIRIRPPRLPRPRPRPPQHPRP	-0.107
RRIRHRPPRLPRPRPRPYLAPRP	-0.00514
RRIRSRPPRLPRPRPRPYFLPRP	-0.885
RRIRLRPPRLPRPRPRPVDWPRP	0.252
RRIRQRPPRLPRPRPRPVSRPRP	-0.00586
RRIRQRPPRLPRPRPRPYIQPRP	-0.32
RRIRFRPPRLPRPRPRPMPYPRP	-0.218

Sequence	shrunken log2 fold change
RRIRMRPPRLPRPRPRPNMVPRP	-0.147
RRIRMRPPRLPRPRPRPAYWPRP	0.509
RRIRFRPPRLPRPRPRPTPGPRP	0.677
RRIRVRPPRLPRPRPRPCNSPRP	-0.116
RRIRHRPPRLPRPRPRPHKGPRP	-0.277
RRIRRRPPRLPRPRPRPEGCPRP	0.863
RRIRMRPPRLPRPRPRPIGPPRP	0.069
RRIRPRPPRLPRPRPRPTELPRP	-0.126
RRIRNRPPRLPRPRPRPFHNPRP	-0.12
RRIRNRPPRLPRPRPRPADSPRP	-0.0169
RRIRCRPPRLPRPRPRPMVPPRP	-0.354
RRIRLRPPRLPRPRPRPANKPRP	-0.0711
RRIRVRPPRLPRPRPRPMLSPRP	-0.0455
RRIRWRPPRLPRPRPRPITMPRP	-0.0679
RRIRQRPPRLPRPRPRPYGFPRP	0.0147
RRIRFRPPRLPRPRPRPNPMPRP	-0.136
RRIRKRPPRLPRPRPRPNLAPRP	0.25
RRIRFRPPRLPRPRPRPHQNPRP	-0.182
RRIRQRPPRLPRPRPRPWDGPRP	0.199
RRIRYRPPRLPRPRPRPPGFPRP	0.184

Sequence	shrunken log2 fold change
RRIRARPPRLPRPRPRPIGRPRP	0.00162
RRIRHRPPRLPRPRPRPCKQPRP	-0.0199
RRIRPRPPRLPRPRPRPKPIPRP	0.035
RRIRERPPRLPRPRPRPCGHPRP	0.0222
RRIRIRPPRLPRPRPRPAYSPRP	-0.534
RRIRQRPPRLPRPRPRPKGFPRP	-0.219
RRIRIRPPRLPRPRPRPVQEPRP	0.00511
RRIRGRPPRLPRPRPRPVYWPRP	1.38
RRIRFRPPRLPRPRPRPMAPPRP	0.114
RRIRSRPPRLPRPRPRPGETPRP	0.488
RRIRMRPPRLPRPRPRPDHWPRP	0.617
RRIRGRPPRLPRPRPRPVFDPRP	0.39
RRIRARPPRLPRPRPRPFNIPRP	-0.307
RRIRHRPPRLPRPRPRPKVKPRP	0.235
RRIRARPPRLPRPRPRPMRVPRP	0.789
RRIRHRPPRLPRPRPRPDMWPRP	-0.175
RRIRGRPPRLPRPRPRPAMAPRP	0.913
RRIRERPPRLPRPRPRPRYYPRP	-0.206
RRIRYRPPRLPRPRPRPNHRPRP	-0.767
RRIRLRPPRLPRPRPRPPADPRP	0.797

Source: the supplement of paper PMC9112550, “Optimization of the antimicrobial peptide Bac7 by deep mutational scanning” (BMC Biology, 2022)
